According to the supplement of paper PMC10567573:

B1: CFHR2 (parent)
chain: FVENGHSESSGQTHLEGDTVQIIC

Variants of: B1
Experiment: protein stability index of a GFP-peptide fusion (GPS, HEK-293T) (PSI 1-6); higher = more stable
Conditions: c terminus: a fixed tail appended
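Also: lentivirally expressed fusions sorted by FACS into six bins by GFP to DsRed ratio, PSI derived from sequencing read proportions per bin multiplied by bin number.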

Protein stability index, by site and new letter:
H14: W 1.75; S 3.02; R 2.89; V 2.95; A 3.11; G 2.47; F 1.89; I 3.28; D 3.29; C 1.96; L 2.37; M 2.35; K 2.35; Y 2.52; E 4.18; T 3.08; P 2.83; N 3.43; Q 3.46
T13: W 1.85; S 2.95; P 2.87; A 2.54; V 2.24; E 3.3; D 3.43; I 2.06; H 2.34; Y 2.19; R 2.47; C 2.55; G 3.03; M 2.19; N 3.35; Q 3.18; F 1.88; L 2.29; K 2.48
S10: I 1.56; N 2.99; C 2; F 1.97; Q 2.77; R 2.59; L 2.31; E 3.33; D 3.51; V 1.75; T 2.73; Y 1.94; G 2.87; M 2.08; A 2.65; K 2.65; P 3.49; H 2.34
S7: M 2.19; N 3.14; R 2.29; Q 3.04; E 3.87; H 2.75; D 3.09; G 2.63; W 4.33; T 3.24; V 2.39; K 2.84; Y 1.64; I 2.42; L 3.1; P 3.12; F 1.43
S9: G 2.7; C 2.02; R 2.14; N 2.76; V 2.15; H 2.77; A 2.5; E 3.22; I 2.2; M 2.32; F 2.19; K 2.76; T 2.78; L 1.99; Q 3.14; Y 1.66; P 2.75; D 3.23
G11: A 2.56; L 2.5; Y 2.04; C 2.19; R 2.86; N 3.09; V 2.67; F 1.98; H 2.67; M 2.03; E 3.32; I 1.81; K 2.39; P 3.22; T 2.86; S 2.48; W 2.33; Q 2.96; D 3.4
Q12: I 2.06; D 3.46; V 2.08; M 1.76; G 3.2; P 3.19; W 2.35; N 3.39; L 1.69; C 1.86; K 2.05; A 2.43; T 2.62; F 2.23; R 1.92; E 3.67; Y 1.62; S 2.49; H 2.4
E8: I 1.57; Q 2.15; N 2.18; K 1.97; A 2.15; R 2.28; C 1.82; G 2.22; H 2.08; Y 2.29; D 2.75; F 1.64; T 2.16; L 1.81; P 2.51; S 2.32; W 3.2; M 1.57; V 2.45
L15: Y 2.76; S 3.22; V 2.99; M 3.13; F 2.2; T 3.12; E 3.15; I 2.69; D 3.4; C 2.78; K 3.25; R 2.87; A 3.22; P 3.2; G 2.9; Q 3.65; W 1.53; H 3; N 3.49
